Article PMC7610652 (Nature structural & molecular biology, 2021)

Experiments:
[1] = molecular target: RPABC5, subunit of human RNA polymerase III (human, UniProt P62875 1-67); test: cryo-EM structure
[2] = molecular target: T1, RPC2, subunit of human RNA polymerase III (human, UniProt Q9NW08 1-1133); test: cryo-EM structure
T1 sequence: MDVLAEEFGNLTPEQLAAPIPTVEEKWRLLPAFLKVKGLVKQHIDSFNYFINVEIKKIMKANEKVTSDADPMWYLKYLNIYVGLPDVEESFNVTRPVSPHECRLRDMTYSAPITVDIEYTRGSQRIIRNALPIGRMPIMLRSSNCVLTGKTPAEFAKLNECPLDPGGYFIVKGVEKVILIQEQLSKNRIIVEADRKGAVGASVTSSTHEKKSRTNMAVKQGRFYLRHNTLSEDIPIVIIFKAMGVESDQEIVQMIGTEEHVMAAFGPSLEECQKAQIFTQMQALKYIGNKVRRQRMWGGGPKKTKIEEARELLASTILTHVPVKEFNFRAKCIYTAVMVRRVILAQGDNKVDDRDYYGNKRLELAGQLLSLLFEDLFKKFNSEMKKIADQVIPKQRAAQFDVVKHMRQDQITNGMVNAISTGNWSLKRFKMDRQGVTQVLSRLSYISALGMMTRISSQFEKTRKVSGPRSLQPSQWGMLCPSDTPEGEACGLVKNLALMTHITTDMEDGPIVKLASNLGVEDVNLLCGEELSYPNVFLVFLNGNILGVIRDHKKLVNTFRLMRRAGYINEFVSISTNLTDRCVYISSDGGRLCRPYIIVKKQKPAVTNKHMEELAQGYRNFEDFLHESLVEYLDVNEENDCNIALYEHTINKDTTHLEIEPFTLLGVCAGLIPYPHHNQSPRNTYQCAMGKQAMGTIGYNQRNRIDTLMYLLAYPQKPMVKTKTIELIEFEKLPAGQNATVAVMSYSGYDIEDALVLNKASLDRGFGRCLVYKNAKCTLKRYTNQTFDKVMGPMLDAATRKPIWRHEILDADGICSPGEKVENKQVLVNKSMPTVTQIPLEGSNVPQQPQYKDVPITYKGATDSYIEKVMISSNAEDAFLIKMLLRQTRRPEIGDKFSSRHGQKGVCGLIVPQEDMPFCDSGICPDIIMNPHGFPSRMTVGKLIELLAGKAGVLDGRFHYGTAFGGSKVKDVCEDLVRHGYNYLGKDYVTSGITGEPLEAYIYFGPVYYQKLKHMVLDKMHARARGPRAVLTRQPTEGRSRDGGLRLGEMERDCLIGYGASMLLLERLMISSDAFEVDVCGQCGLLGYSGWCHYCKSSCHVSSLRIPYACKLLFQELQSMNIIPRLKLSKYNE

binding result [1]: binds
binding result [2]: binds
B1: RPC5, subunit of the human RNA polymerase III heterodimer (natural protein)
chain: MANEEDDPVVQEIDVYLAKSLAEKLYLFQYPVRPASMTYDDIPHLSAKIKPKQQKVELEMAIDTLNPNYCRSKGEQIALNVDGACADETSTYSSKLMDKQTFCSSQTTSNTSRYAAALYRQGELHLTPLHGILQLRPSFSYLDKADAKHREREAANEAGDSSQDEAEDDVKQITVRFSRPESEQARQRRVQSYEFLQKKHAEEPWVHLHYYGLRDSRSEHERQYLLCPGSSGVENTELVKSPSEYLMMLMPPSQEEEKDKPVAPSNVLSMAQLRTLPLADQIKILMKNVKVMPFANLMSLLGPSIDSVAVLRGIQKVAMLVQGNWVVKSDILYPKDSSSPHSGVPAEVLCRGRDFVMWKFTQSRWVVRKEVATVTKLCAEDVKDFLEHMAVVRINKGWEFILPYDGEFIKKHPDVVQRQHMLWTGIQAKLEKVYNLVKETMPKKPDAQSGPAGLVCGDQRIQVAKTKAQQNHALLERELQRRKEQLRVPAVPPGVRIKEEPVSEEGEEDEEQEAEEEPMDTSPSGLHSKLANGLPLGRAAGTDSFNGHPPQGCASTPVARELKAFVEATFQRQFVLTLSELKRLFNLHLASLPPGHTLFSGISDRMLQDTVLAAGCKQILVPFPPQTAASPDEQKVFALWESGDMSDQHRQVLLEIFSKNYRVRRNMIQSRLTQECGEDLSKQEVDKVLKDCCVSYGGMWYLKGTVQS
